Values of other authors as cited in patent publication US20250034272A1, “COMPOSITIONS AND METHODS FOR TREATING SEVERE ASTHMA” (Equillium, Inc., priority 2018, published 2025).

System: Th1/Th17 type T cells
Conditions: stated as known ability

B1: EQ001: humanized anti-CD6 monoclonal antibody, VH/VK SEQ ID NOS: 1 and 2; itolizumab produced in CHO cells (antibody, V domains shown)
VH: EVQLVESGGGLVKPGGSLKLSCAASGFKFSRYAMSWVRQAPGKRLEWVATISSGGSYIYYPDSVKGRFTISRDNVKNTLYLQMSSLRSEDTAMYYCARRDYDLDYFDSWGQGTLVTVSS
VL: DIQMTQSPSSLSASVGDRVTITCKASRDIRSYLTWYQQKPGKAPKTLIYYATSLADGVPSRFSGSGSGQDYSLTISSLESDDTATYYCLQHGESPFTLGSGTKLEIK
modifications: humanized T1h VH sequence; humanized T1h VL sequence
notes: itolizumab produced in CHO cells
- inhibition of activation and migration of Th1/Th17 type T cells: inhibit activation and migration
